# Experimental data published in IntAct's records for PubMed 24879152.
# B1: Next to BRCA1 gene 1 protein (Homo sapiens), Q14596 (parent)
# chain: MEPQVTLNVTFKNEIQSFLVSDPENTTWADIEAMVKVSFDLNTIQIKYLDEENEEVSINSQGEYEEALKMAVKQGNQLQMQVHEGHHVVDEAPPPVVGAKRLAARAGKKPLAHYSSLVRVLGSDMKTPEDPAVQSFPLVPCDTDQPQDKPPDWFTSYLETFREQVVNETVEKLEQKLHEKLVLQNPSLGSCPSEVSMPTSEETLFLPENQFSWHIACNNCQRRIVGVRYQCSLCPSYNICEDCEAGPYGHDTNHVLLKLRRPVVGSSEPFCHSKYSTPRLPAALEQVRLQKQVDKNFLKAEKQRLRAEKKQRKAEVKELKKQLKLHRKIHLWNSIHGLQSPKSPLGRPESLLQSNTLMLPLQPCTSVMPMLSAAFVDENLPDGTHLQPGTKFIKHWRMKNTGNVKWSADTKLKFMWGNLTLASTEKKDVLVPCLKAGHVGVVSVEFIAPALEGTYTSHWRLSHKGQQFGPRVWCSIIVDPFPSEESPDNIEKGMISSSKTDDLTCQQEETFLLAKEERQLGEVTEQTEGTAACIPQKAKNVASERELYIPSVDLLTAQDLLSFELLDINIVQELERVPHNTPVDVTPCMSPLPHDSPLIEKPGLGQIEEENEGAGFKALPDSMVSVKRKAENIASVEEAEEDLSGTQFVCETVIRSLTLDAAPDHNPPCRQKSLQMTFALPEGPLGNEKEEIIHIAEEEAVMEEEEDEEDEEEEDELKDEVQSQSSASSEDYIIILPECFDTSRPLGDSMYSSALSQPGLERGAEGKPGVEAGQEPAEAGERLPGGENQPQEHSISDILTTSQTLETVPLIPEVVELPPSLPRSSPCVHHHGSPGVDLPVTIPEVSSVPDQIRGEPRGSSGLVNSRQKSYDHSRHHHGSSIAGGLVKGALSVAASAYKALFAGPPVTAQPIISEDQTAALMAHLFEMGFCDRQLNLRLLKKHNYNILQVVTELLQLNNNDWYSQRY
# B2: Glycogen synthase kinase-3 alpha (Homo sapiens), P49840 (parent)
# chain: MSGGGPSGGGPGGSGRARTSSFAEPGGGGGGGGGGPGGSASGPGGTGGGKASVGAMGGGVGASSSGGGPGGSGGGGSGGPGAGTSFPPPGVKLGRDSGKVTTVVATLGQGPERSQEVAYTDIKVIGNGSFGVVYQARLAETRELVAIKKVLQDKRFKNRELQIMRKLDHCNIVRLRYFFYSSGEKKDELYLNLVLEYVPETVYRVARHFTKAKLTIPILYVKVYMYQLFRSLAYIHSQGVCHRDIKPQNLLVDPDTAVLKLCDFGSAKQLVRGEPNVSYICSRYYRAPELIFGATDYTSSIDVWSAGCVLAELLLGQPIFPGDSGVDQLVEIIKVLGTPTREQIREMNPNYTEFKFPQIKAHPWTKVFKSRTPPEAIALCSSLLEYTPSSRLSPLEACAHSFFDELRCLGTQLPNNRPLPPLFNFSAGELSIQPSLNAILIPPHLRSPAGTTTLTPSSQALTETPTSSDWQSTDATPTLTNSS
# partner: B1 chain
# Variants of: B1
# Details: with gsk3a_human GSK3A
row,Variant,effect of a mutation on the interaction
1,T581A;T586A;S590A,decreasing interaction strength
2,T581A,decreasing interaction strength
3,T586A,with no effect
4,S590A,with no effect
5,T586A;S590A,with no effect

# Variants of: B1
# Details: with gsk3b_human GSK3B
row,Variant,effect of a mutation on the interaction
1,T581A;T586A;S590A,disrupting interaction strength
2,T581A,with no effect

# Variants of: B1
# Details: with ubc_human UBC
row,Variant,effect of a mutation on the interaction
1,T586E;S590E,with no effect
2,T586A;S590A,with no effect

# Variants of: B1
# Details: with mlp3b_human MAP1LC3B
row,Variant,effect of a mutation on the interaction
1,T586E;S590E,with no effect
2,T586A;S590A,with no effect

# Variants of: B1
# Details: with gbrap_human GABARAP
row,Variant,effect of a mutation on the interaction
1,T586E;S590E,with no effect
2,T586A;S590A,with no effect

# Variants of: B1
# Details: with mlp3b_mouse Map1lc3b
row,Variant,effect of a mutation on the interaction
1,T586E;S590E,with no effect
2,T586A;S590A,with no effect

# Variants of: B2
# Details: with nbr1_human NBR1, Q14596
row,Variant,effect of a mutation on the interaction
1,K148A,disrupting interaction strength
2,S21A,with no effect
